Test results published in patent US7056886B2, “GLP-2 formulations” (NPS Allelix, Corp., priority 1999, dated 2006).

Key:
[1] = pH solubility profile of h[Gly2]GLP-2 (precipitation); assay type: physicochemical
Procedure: (§1) Based on pH solubility profiles, it was determined that a phosphate buffer provides optimal buffering capacity for GLP-2 peptides. […] L-histidine acts as a stabilizing amino acid that increases the length of time that the GLP-2 peptide remains intact prior to degradation.

[2] = Temperature profile / phase transition of h[Gly2]GLP-2; assay type: physicochemical
Procedure: It has also been discovered that Tween 80®, salt, and arginine are not suitable materials for producing a stable formulation for h[Gly2]GLP-2.
as §1

For h[Gly2]GLP-2, the “pH at which the analog precipitated” value [1] was “less than 5.5”, the phase transition temperature ([2]; depending upon the salt concentration) was 40-55 °C and the “behaviour in the presence of salt” value ([2]; in the presence of salt) was “becomes hydrophobic in the presence of salt”. The “heat-induced and salt-dependent transition temperature” value ([2]; temperature profiles) was “about 40 °C”.
